Series [1] is described as follows: folding stability dG unfold from trypsin proteolysis; higher = more stable. A digest of the protocol:
(§1)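 Digests were run with trypsin and chymotrypsin at 11 concentrations in threefold dilutions, plus a no-protease condition, on designed mini-proteins in a PA-tagged cDNA display construct. The mini-proteins were under 80 residues, had no cysteine, and were kept only when AlphaFold2 dimer inter-PAE was above 15. After sequencing, Bayesian fitting of the counts gave K50, from which unfolding free energy was derived against a sequence-predicted unfolded-state K50 and a shared folded-state K50, per protease or combined.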

The nature of series [2]: folding stability dG unfold from chymotrypsin proteolysis; higher = more stable. Summed up:
as §1

The nature of series [3]: folding stability dG unfold (combined trypsin and chymotrypsin); higher = more stable. A digest of the protocol:
as §1

± gives the half width of the 95% confidence interval.

Regarding “SAGGSAGGSASFTTTPVQFPDNTRVTTVTLDPETGTTIATVTSPSATSLVTIPGDTTTLTGSSAGGSAGGSA [r18_212_JUSTAS]”, the “folding stability dG unfold” value in series [1] was 0.551 ± 0.023 kcal/mol; in series [2] it was -0.246 ± 0.087 kcal/mol; in series [3] it was 0.286 ± 0.045 kcal/mol.

In the case of “SAGGSAGGSASIEITVKTKEEAKALAEALAKAGLVEVETLPDGSVKITVKPVKVEEVLKPPESAGGSAGGSA [r18_126_TrROS_Hall]”, the figures for the “folding stability dG unfold” value in series [1], in series [2] and in series [3] were 1.66 ± 0.096 kcal/mol, 2.61 ± 0.22 kcal/mol and 2.17 ± 0.29 kcal/mol, respectively.

Take “SAGGSAGGSASIPELAEELGLPAEVEVTEDVEPEKPVVYPVVVREPGGGEVRVVPVVLPPGVSAGGSAGGSA [r18_313_JUSTAS]”: the “folding stability dG unfold” value in series [1] was -0.223 ± 0.14 kcal/mol; in series [2], 1.36 ± 0.043 kcal/mol; in series [3], 0.922 ± 0.16 kcal/mol.

Consider “SAGGSAGGSASITFMLMKFDPEDNRVEVYTYKIKIERDPNGLKKFKIEPVKRQRINPDDLKAISAGGSAGGS [r12_374_TrROS]”, for which the “folding stability dG unfold” value in series [1] is 2.13 ± 0.12 kcal/mol; in series [2], 3.48 ± 0.09 kcal/mol; in series [3], 2.98 ± 0.25 kcal/mol.

“SAGGSAGGSASKNGKELEIKIKVDIYPFPGWGIVRVDYEIEYPDGKEQKFDLWIPVPPGDASAGGSAGGSAG [r3_330_TrROS]”: the “folding stability dG unfold” value in series [1] is 1.65 ± 0.11 kcal/mol; in series [2] it was 1.64 ± 0.088 kcal/mol; in series [3], 1.66 ± 0.17 kcal/mol.

Regarding “SAGGSAGGSASKPYTITLPGNYRIEVYELPDGTYLARIYFPDKPGYYALALLTDNSIYIFPSAGGSAGGSAG [r3_170_TrMRF]”, the “folding stability dG unfold” value in series [1] was found to be 3.05 ± 0.07 kcal/mol; in series [2], 3.691 ± 0.019 kcal/mol; in series [3] it was 3.47 ± 0.068 kcal/mol.

On to “SAGGSAGGSASLEEIKERAREEILKKHPDLPPDEPLTVTVKDPNSSNEYTITFNADGTVVESAGGSAGGSAG [r3_441_JUSTAS]”, for which the “folding stability dG unfold” value in series [1] is 0.677 ± 0.027 kcal/mol; in series [2], 0.814 ± 0.052 kcal/mol; in series [3] it was 0.837 ± 0.098 kcal/mol.

As to “SAGGSAGGSASMTSSVSTSLNPDNPPVVLVTTTYPDGTVTLTVKDLSTGTTTSTTTTPLPSSAGGSAGGSAG [r3_299_JUSTAS]”, the “folding stability dG unfold” value in series [1] is 1.17 ± 0.042 kcal/mol; in series [2], 0.589 ± 0.043 kcal/mol; in series [3], 0.893 ± 0.059 kcal/mol.

For the sequence “SAGGSAGGSASMTTLEIEIELDESDIEKVKEELKKELPKNVKVIIHAYDKNGNIIEEIEIEFSAGGSAGGSA [r18_188_JUSTAS]”, the “folding stability dG unfold” value in series [1] came to 1.33 ± 0.036 kcal/mol; in series [2], 1.61 ± 0.097 kcal/mol; in series [3], 1.6 ± 0.17 kcal/mol.

Turning to “SAGGSAGGSASNPKIISVENLGNYTVVLAEDPEDGSLVLVVINPDNNSALVFKDNKPVAVFSAGGSAGGSAG [r3_297_TrMRF]”, the figures for the “folding stability dG unfold” value in series [1], in series [2] and in series [3] were 1.33 ± 0.025 kcal/mol, 1.66 ± 0.11 kcal/mol and 1.45 ± 0.13 kcal/mol, respectively.

Consider “SAGGSAGGSASPAPDTLYVPVVFDVVFPLPDGSYVLVPVLAYYQLPGGTLLASVRFAVTFDSAGGSAGGSAG [r3_484_TrMRF]”, for which the “folding stability dG unfold” value in series [1] was 2.77 ± 0.16 kcal/mol; in series [2], 4.28 ± 0.098 kcal/mol; in series [3] it was 3.86 ± 0.2 kcal/mol.

As for “SAGGSAGGSASPIHATVSVDPETGTYTVHYPDGSTKTITGLSPEEVAALAKEMGIDEITLESAGGSAGGSAG [r3_78_JUSTAS]”, the “folding stability dG unfold” value in series [1] came out at 3 ± 0.08 kcal/mol; in series [2], 2.64 ± 0.034 kcal/mol; in series [3], 2.81 ± 0.044 kcal/mol.

Turning to “SAGGSAGGSASPRTYKYKFTIKYPDGSTSEYEIVDEEDKAKEKIKKEYGAEEIELEIEPEESAGGSAGGSAG [r3_220_JUSTAS]”, the figures for the “folding stability dG unfold” value in series [1], in series [2] and in series [3] were -0.218 ± 0.41 kcal/mol, 1.39 ± 0.19 kcal/mol and 0.637 ± 0.28 kcal/mol, respectively.

Take “SAGGSAGGSASPSYLLTVTVYRPGGNPLSRRVFPPSVSPAEVEAWLATLPSDYSWEVSREPVSAGGSAGGSA [r18_431_JUSTAS]”: the “folding stability dG unfold” value in series [1] worked out at 0.957 ± 0.051 kcal/mol; in series [2], 2.95 ± 0.022 kcal/mol; in series [3], 2.59 ± 0.048 kcal/mol.

For the sequence “SAGGSAGGSASSTLRTVRFPPDTPLEEVKEALAAEFPDRDPNIKILEVRPEDGGLVVTVEVVSAGGSAGGSA [r18_360_JUSTAS]”, the figures for the “folding stability dG unfold” value in series [1], in series [2] and in series [3] were 1.51 ± 0.033 kcal/mol, 1.58 ± 0.031 kcal/mol and 1.62 ± 0.057 kcal/mol, respectively.

Take “SAGGSAGGSASVVVTKETLPNGETRITTTTTTTTTVTVYDNNETVTTTTTTTTTTVVPKSLLSAGGSAGGSA [r18_34_JUSTAS]”: the results for the “folding stability dG unfold” value in series [1], in series [2] and in series [3] were 0.601 ± 0.055 kcal/mol, 1.66 ± 0.039 kcal/mol and 1.38 ± 0.084 kcal/mol, respectively.

Turning to “SAGGSAGGSATIYIIMPPDDPIPPNMPIRLPDGKPVRIDVEPVPLEEDGGPIFRIEVEPGATSAGGSAGGSA [r18_476_TrROS]”, the “folding stability dG unfold” value was -0.181 ± 0.12 kcal/mol in series [1], 0.0617 ± 0.21 kcal/mol in series [2] and -0.03 ± 0.16 kcal/mol in series [3].

“SAGGSAGGSATLTIDELRELLEKLGIDVEELSEEEIAELLKKLYPNARVERNENGELTIHPSAGGSAGGSAG [r3_375_TrROS_Hall]”: the “folding stability dG unfold” value was 3.34 ± 0.096 kcal/mol in series [1], 2.77 ± 0.12 kcal/mol in series [2] and 2.99 ± 0.14 kcal/mol in series [3].

The values above are taken from the supplement of paper PMC12764529.
